# According to publication PMC2793330 (Journal of structural biology, 2009):
# T1: Spc98p, without fluorescent protein tag (S. cerevisiae, UniProt P53540 1-846)
# T1 sequence (looked up): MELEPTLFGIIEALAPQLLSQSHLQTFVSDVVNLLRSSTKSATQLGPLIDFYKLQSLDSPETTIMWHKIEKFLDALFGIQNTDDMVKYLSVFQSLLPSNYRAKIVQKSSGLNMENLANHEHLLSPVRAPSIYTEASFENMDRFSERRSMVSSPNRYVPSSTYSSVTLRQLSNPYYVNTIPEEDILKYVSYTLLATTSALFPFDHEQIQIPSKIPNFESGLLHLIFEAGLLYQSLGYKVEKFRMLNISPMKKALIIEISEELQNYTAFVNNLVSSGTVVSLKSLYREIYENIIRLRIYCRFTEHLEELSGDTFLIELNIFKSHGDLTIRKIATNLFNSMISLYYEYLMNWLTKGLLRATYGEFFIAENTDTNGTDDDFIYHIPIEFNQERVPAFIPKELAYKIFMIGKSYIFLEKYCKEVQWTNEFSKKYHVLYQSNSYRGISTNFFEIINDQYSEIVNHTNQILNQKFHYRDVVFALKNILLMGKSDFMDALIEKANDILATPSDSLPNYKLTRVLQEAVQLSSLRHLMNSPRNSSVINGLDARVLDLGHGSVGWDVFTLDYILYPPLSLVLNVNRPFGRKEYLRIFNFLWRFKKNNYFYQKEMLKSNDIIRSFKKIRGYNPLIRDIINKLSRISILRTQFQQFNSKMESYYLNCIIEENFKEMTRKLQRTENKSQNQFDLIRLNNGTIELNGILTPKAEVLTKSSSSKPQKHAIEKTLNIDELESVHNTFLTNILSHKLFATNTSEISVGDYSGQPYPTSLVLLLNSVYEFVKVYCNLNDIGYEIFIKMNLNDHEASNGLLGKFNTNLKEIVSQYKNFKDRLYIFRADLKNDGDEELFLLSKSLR
# T2: Spc98p with CFP on its C-terminus (of γ-TuSC:Spc98pCFP) (S. cerevisiae, UniProt P53540 1-846)
# T2 sequence (looked up): T1 sequence (looked up)
# T3: Spc98p with CFP on its N-terminus (of γ-TuSC:CFPSpc98p) (S. cerevisiae, UniProt P53540 1-846)
# T3 sequence (looked up): T1 sequence (looked up)
# B1: Spc97p with YFP on its N-terminus (of γ-TuSC:YFPSpc97p) (natural protein, S. cerevisiae, UniProt P38863 1-823, looked up)
# chain: MEIKEVDDRAELLRYTNNIPLLGKLVNHQPLWSTNPKLKSFSLEKISAPDQRRVQEALVVKDLLNVLIGLEGTYIRYFNDYEPSDPETPIEFKIAKKMDPSFKTFSRRIVRYGKQYMILTRAYEKWSDTSFGMVLQRFAYEIRRFLEDVYLKTLVERLERDFNKVPNFSIRELEQIINETEVNKQMELLYNIYEEIFREIEERRTNQSSQEDFNNFMDSMKNESSLHLRLMVAFDTTVYPVPKGGAILKIFQQKILENLGDRSSVMFLKKLLNNISQDYCTMLYEWLTQGILNDPYQEFMTYDDLEGKTDNIFDTRDRAWDTQYFIRKDVLLRDCDSEEDKNLLFKMLRTGILLKVVRASLQIPTIPSNSSDITIQEINDFADLMEGSNLELYVDKCYSRANEIFLKLFFQGYDLINVLKHLQQIFLGYQSGHNVLKFLTKNMGELTKHYRNDNNANYDKLLQNFELERQSENPNNLMRQLLMIQFDTETLPQVLSHYLQIYPEVPENNSANDDSDPLMHANNFKNMNAILFDELSKERTGAYHGSNLELYTPKSAIYHLKFDINIPYPLNIIISRTCMIKYQIILRYQLVLQYHSRLLDETWMDLNKTPSWKYRGYSHTVKRRIVRATRVLHAKMNHFIKTIMEYFNQNVIDKEVYSLEKCYRNPTLAVAIQNELEGGLTNIMTNRCLSDLIPLQLQIFDIVYKFCKFIKSMRAKLCQLDPVLYEKHKSGMMKTLNEGYRTNNGGQEDVGYQEDAALELIQKLIEYISNASSIFRKCLINFTQELSTEKFDFYDSSSVDAAGIERVLYSIVPPRSASASSQR
# B2: Spc97p, without fluorescent protein tag (natural protein, S. cerevisiae, UniProt P38863 1-823, looked up)
# chain: B1 chain
# B3: Spc97p with YFP on its C-terminus (of γ-TuSC:Spc97pYFP) (natural protein, S. cerevisiae, UniProt P38863 1-823, looked up)
# chain: B1 chain
# B4: γ-tubulin (Tub4p), His-tagged, as in the fluorescent-protein-tagged γ-TuSC constructs (natural protein, S. cerevisiae, UniProt P53378 1-473, looked up)
# chain: MGGEIITLQAGQCGNHVGKFLWSQLAKEHAIGTDGLSQLPDSSTERDDDTKPFFRENSRNKFTPRAIMMDSEPSVIADVENTFRGFFDPRNTWVASDGASAGNSWANGYDIGTRNQDDILNKIDKEIDSTDNFEGFQLLHSVAGGTGSGLGSNLLEALCDRYPKKILTTYSVFPARSSEVVVQSYNTILALRRLIEDSDATVVFDNASLLNISGKVFRNPNIDLQHTNQLISTIISSVTNSIRFPSYMYSSMSSIYSTLIPSPELHFLSPSFTPFTSDYIHDDIAHKGHSSYDVMLDLLDPSNSLVSTAMNNPTYFNVYNTIIGNVEPRQISRAMTKLQQRIKFPSWSSSAMHVNIGRRSPYLPLQPNENEVSGMMLSNMSTVVNVFENACNTFDKVFAKGAFLNNYNVGDLFQSMQNVQDEFAESREVVQSLMEDYVAAEQDSYLDDVLVDDENMVGELEEDLDADGDHKLV
# B5: γ-tubulin (Tub4p), His-tagged with the longer tag linker, as in the γ-TuSC without fluorescent protein tag (natural protein, S. cerevisiae, UniProt P53378 1-473, looked up)
# chain: B4 chain
# Tests used:
# Assay in all cases: co-purification, SDS-PAGE with band densitometry
# [1] = molecular target: T1, Spc98p, without fluorescent protein tag
# [2] = molecular target: T2, Spc98p with CFP on its C-terminus (of …)
# [3] = molecular target: T3, Spc98p with CFP on its N-terminus (of …)
# [4] = molecular target: B1
# [5] = molecular target: B3
# [6] = molecular target: B2
stoichiometry N [1],stoichiometry N [2],stoichiometry N [3],stoichiometry N [4],stoichiometry N [5],stoichiometry N [6],Binder
1,–,–,–,–,–,B1
1,1,1,–,–,–,B2
1,–,–,–,–,–,B3
2,2,2,2,2,2,B4
2,–,–,–,–,2,B5
